In article PMC11511825:

Target: FUS-eGFP (C-terminally eGFP-tagged Fused in Sarcoma) (UniProt P35637)
Experiment: FRET or BRET

Substance: FUS-eGFP (C-terminally eGFP-tagged Fused in Sarcoma) (from UniProt P35637 1-526) (natural protein)
- apparent homoFRET efficiency (E Homo): 0.7
- steady-state fluorescence anisotropy in droplets (loss by homoFRET): 0.08
